Literature values, collected in patent US12090208B2, “Peptide drug improvement using vitamin B12 and Haptocorrin binding substrate conjugates” (SYRACUSE UNIVERSITY, priority 2017, dated 2024).

Conditions: in vivo

B1: haptocorrin: serum B12 binding and transport protein (protein, UniProt P20061 24-433, looked up)
Transcobalamin-1: EICEVSEENYIRLKPLLNTMIQSNYNRGTSAVNVVLSLKLVGIQIQTLMQKMIQQIKYNVKSRLSDVSSGELALIILALGVCRNAEENLIYDYHLIDKLENKFQAEIENMEAHNGTPLTNYYQLSLDVLALCLFNGNYSTAEVVNHFTPENKNYYFGSQFSVDTGAMAVLALTCVKKSLINGQIKADEGSLKNISIYTKSLVEKILSEKKENGLIGNTFSTGEAMQALFVSSDYYNENDWNCQQTLNTVLTEISQGAFSNPNAAAQVLPALMGKTFLDINKDSSCVSASGNFNISADEPITVTPPDSQSYISVNYSVRINETYFTNVTVLNGSVFLSVMEKAQKMNDTIFGFTMEERSWGPYITCIQGLCANNNDRTYWELLSGGEPLSQGAGSYVVRNGENLEVRWSKY
For B1, the half-life in blood is listed as “approximately 10 hours”.
